In the supplement of paper PMC9112550, “Optimization of the antimicrobial peptide Bac7 by deep mutational scanning” (BMC Biology, 2022):

Test system: Escherichia coli TOP10
Assay: shrunken log2 fold change of peptide-encoding DNA abundance (4.5 h post-induction vs induction); higher = less antimicrobial activity (less host growth inhibition)
Settings: time post-induction: 4.5 h; library: site-saturation at positions 5, 18, 19, 20
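Further: peptides expressed intracellularly from a pBAD plasmid library in pooled LB shake-flask culture, induced with 0.3% L-arabinose, DNA abundance read by NGS, three biological replicates, DESeq2 with apeglm shrinkage.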

Sequence	shrunken log2 fold change
RRIRYRPPRLPRPRPRPLIQPRP	-0.559
RRIRTRPPRLPRPRPRPTSAPRP	0.587
RRIRKRPPRLPRPRPRPRDSPRP	0.262
RRIRVRPPRLPRPRPRPGFGPRP	0.408
RRIRLRPPRLPRPRPRPVKIPRP	-0.169
RRIRRRPPRLPRPRPRPALMPRP	0.195
RRIRKRPPRLPRPRPRPMLIPRP	0.0347
RRIRRRPPRLPRPRPRPEPFPRP	-0.0448
RRIRQRPPRLPRPRPRPFFMPRP	-0.129
RRIRGRPPRLPRPRPRPPAYPRP	0.532
RRIRQRPPRLPRPRPRPLHKPRP	0.0733
RRIRMRPPRLPRPRPRPVDCPRP	0.029
RRIRHRPPRLPRPRPRPQNSPRP	-0.423
RRIRPRPPRLPRPRPRPNAWPRP	0.356
RRIRHRPPRLPRPRPRPWYWPRP	-0.115
RRIRARPPRLPRPRPRPEWQPRP	0.105
RRIRRRPPRLPRPRPRPPHRPRP	1.36
RRIRDRPPRLPRPRPRPMFNPRP	-0.0203
RRIRIRPPRLPRPRPRPINWPRP	-0.402
RRIRARPPRLPRPRPRPALTPRP	0.642
RRIRFRPPRLPRPRPRPTWPPRP	0.422
RRIRIRPPRLPRPRPRPFDAPRP	-0.0176
RRIRLRPPRLPRPRPRPIWAPRP	0.136

Sequence	shrunken log2 fold change
RRIRTRPPRLPRPRPRPNWFPRP	-0.157
RRIRQRPPRLPRPRPRPPQWPRP	0.525
RRIRDRPPRLPRPRPRPMYRPRP	-0.0107
RRIRWRPPRLPRPRPRPIKYPRP	-0.744
RRIRERPPRLPRPRPRPLSAPRP	-0.229
RRIRHRPPRLPRPRPRPAADPRP	0.274
RRIRMRPPRLPRPRPRPSTYPRP	-0.347
RRIRVRPPRLPRPRPRPARVPRP	0.263
RRIRHRPPRLPRPRPRPWRMPRP	0.0309
RRIRNRPPRLPRPRPRPSYTPRP	-1.13
RRIRKRPPRLPRPRPRPAIDPRP	0.113
RRIRIRPPRLPRPRPRPYTFPRP	-2.16
RRIRTRPPRLPRPRPRPQAQPRP	0.017
RRIRHRPPRLPRPRPRPEGRPRP	-0.114
RRIRFRPPRLPRPRPRPMPVPRP	-0.0124
RRIRLRPPRLPRPRPRPILYPRP	-0.314
RRIRIRPPRLPRPRPRPHYGPRP	-0.223
RRIRSRPPRLPRPRPRPYSIPRP	-0.376
RRIRQRPPRLPRPRPRPHFLPRP	-0.218
RRIRERPPRLPRPRPRPFTFPRP	-0.275
RRIRPRPPRLPRPRPRPNGKPRP	-0.257
RRIRHRPPRLPRPRPRPFMDPRP	-0.436
RRIRERPPRLPRPRPRPATVPRP	-0.2

Sequence	shrunken log2 fold change
RRIRMRPPRLPRPRPRPYLWPRP	0.0857
RRIRPRPPRLPRPRPRPRYGPRP	0.00536
RRIRERPPRLPRPRPRPIYRPRP	-0.565
RRIRCRPPRLPRPRPRPYHMPRP	-0.56
RRIRQRPPRLPRPRPRPMCMPRP	0.0416
RRIRPRPPRLPRPRPRPNSWPRP	-0.299
RRIRNRPPRLPRPRPRPTIGPRP	-0.00466
RRIRARPPRLPRPRPRPWHTPRP	-0.219
RRIRWRPPRLPRPRPRPTMIPRP	-0.0926
RRIRSRPPRLPRPRPRPKDEPRP	0.382
RRIRDRPPRLPRPRPRPDAQPRP	1.21
RRIRARPPRLPRPRPRPWYKPRP	-0.229
RRIRERPPRLPRPRPRPLNAPRP	-0.113
RRIRKRPPRLPRPRPRPMWNPRP	0.232
RRIRSRPPRLPRPRPRPGTCPRP	0.148
RRIRPRPPRLPRPRPRPIMHPRP	-0.0526
RRIRFRPPRLPRPRPRPSPFPRP	0.0724
RRIRFRPPRLPRPRPRPRKAPRP	0.182
RRIRMRPPRLPRPRPRPHTLPRP	-0.119
RRIRYRPPRLPRPRPRPWPFPRP	-0.218
RRIRMRPPRLPRPRPRPITTPRP	-0.0401
RRIRFRPPRLPRPRPRPDTGPRP	-0.356
RRIRTRPPRLPRPRPRPPFNPRP	0.0539

Sequence	shrunken log2 fold change
RRIRKRPPRLPRPRPRPEHGPRP	0.0647
RRIRMRPPRLPRPRPRPAELPRP	0.604
RRIRMRPPRLPRPRPRPWGSPRP	0.0578
RRIRKRPPRLPRPRPRPHCMPRP	0.159
RRIRWRPPRLPRPRPRPREVPRP	0.477
RRIRKRPPRLPRPRPRPETTPRP	1.53
RRIRERPPRLPRPRPRPRRYPRP	-0.184
RRIRIRPPRLPRPRPRPLGSPRP	-0.41
RRIRGRPPRLPRPRPRPLKNPRP	0.459
RRIRMRPPRLPRPRPRPKQHPRP	0.675
RRIRPRPPRLPRPRPRPINAPRP	-0.292
RRIRDRPPRLPRPRPRPDGRPRP	0.655
RRIRFRPPRLPRPRPRPAPRPRP	0.84
RRIRERPPRLPRPRPRPRLRPRP	0.25
RRIRARPPRLPRPRPRPNCDPRP	0.476
RRIRARPPRLPRPRPRPVRSPRP	0.345
RRIRPRPPRLPRPRPRPTECPRP	0.0179
RRIRFRPPRLPRPRPRPITQPRP	-0.278
RRIRKRPPRLPRPRPRPTLFPRP	0.111
RRIRSRPPRLPRPRPRPRDHPRP	0.0497
RRIRLRPPRLPRPRPRPKWTPRP	0.0422
RRIRRRPPRLPRPRPRPIFEPRP	0.0525
RRIRHRPPRLPRPRPRPHKWPRP	-0.0897
